The target of test [1] is T1, human interleukin-38 (IL-38) (human, UniProt Q8WWZ1 1-152).
T1 construct: The Adipogen protein is called full length; also called IL1F10/IL38; IL1F10
T1 sequence (looked up): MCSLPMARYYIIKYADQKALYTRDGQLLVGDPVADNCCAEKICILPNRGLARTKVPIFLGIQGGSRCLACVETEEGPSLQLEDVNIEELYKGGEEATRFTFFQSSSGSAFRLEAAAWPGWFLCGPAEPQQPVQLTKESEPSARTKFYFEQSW
In words: SPR, IMM20130 captured on anti-human Fc CM5 chip, IL-38 as analyte, 25 C, 1:1 model. The method, then:
Binding of IMM20130 to IL-38 (NovusBio, catalog number NBP2-22645) was quantified by surface plasmon resonance (SPR). Briefly, IMM20130 was diluted in SPR running buffer (10 mM HEPES, pH7.4, 150 mM NaCl, 0.0005% Tween-20, 0.2% bovine serum albumin) to final concentrations of 150 nM and 25 nM and captured at four different surface densities on an anti-human Fc coated CM5 sensor chip. Surface densities ranged from 600 to 3200 RU. IL-38 (NovusBio, catalog number NBP2-22645) was diluted in SPR running buffer to a concentration of 600 nM and a 3-fold dilution series was run across the four different IMM20130 density surfaces. Data were collected at 25° C. Data from all four surfaces were fitted to a 1:1 interaction model yielding the rate constants depicted in Table 2.
Background: In SPR one partner is held on a chip, and binding of the other changes the refractive index at the surface.

In test [2] the target is T2, IL-36Ra (human, UniProt Q9UBH0 1-155, limits assumed).
T2 sequence (looked up): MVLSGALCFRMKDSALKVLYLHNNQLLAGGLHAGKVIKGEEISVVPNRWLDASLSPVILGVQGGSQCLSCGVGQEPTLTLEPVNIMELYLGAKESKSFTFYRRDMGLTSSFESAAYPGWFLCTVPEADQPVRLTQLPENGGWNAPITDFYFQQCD
Nature of the test: CDI HuProt native protein microarray. The method, then:
(§1) To confirm specificity to IL-38, several lead candidate antibodies (CD1-M3, CD1-M8, NZB-M8) were analyzed in a High-Spec Cross-reactivity Assay using native HuProt arrays (CDI Laboratories). […] of antibody was incubated overnight in a cold room, washed, and probed with anti-human secondary antibodies. Fluorescence intensity (F635) as an indicator of binding was measured for each spot. CDI software quantified the specificity of the antibody to each spot based on a Z-score. Z-score is defined as [F635−(Average F635 on array)]/(Standard deviation of F635 on array). S-score is defined as the difference between the Z-score of a given protein and the Z-score of the next highest protein.

Test [3] addresses T3, IL-18 (human, UniProt Q14116 1-193, limits assumed).
T3 sequence (looked up): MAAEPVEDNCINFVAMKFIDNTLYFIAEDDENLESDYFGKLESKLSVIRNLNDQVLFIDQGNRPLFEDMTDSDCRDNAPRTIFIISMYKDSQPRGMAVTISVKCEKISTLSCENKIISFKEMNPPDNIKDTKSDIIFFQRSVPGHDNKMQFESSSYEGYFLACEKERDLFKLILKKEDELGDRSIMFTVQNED
Nature of the test: CDI HuProt native protein microarray. The method, then:
as §1

The target in test [4] is T4, IL-37 (human, UniProt Q9NZH6 1-218, limits assumed).
T4 sequence (looked up): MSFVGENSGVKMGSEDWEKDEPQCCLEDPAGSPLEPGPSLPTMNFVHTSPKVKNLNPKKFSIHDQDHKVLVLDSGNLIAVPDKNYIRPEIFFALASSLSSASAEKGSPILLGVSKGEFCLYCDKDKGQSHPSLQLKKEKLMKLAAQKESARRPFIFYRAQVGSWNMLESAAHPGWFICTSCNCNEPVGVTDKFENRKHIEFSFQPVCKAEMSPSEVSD
Nature of the test: CDI HuProt native protein microarray. The method, then: as §1

Test [5] addresses T5, IL-1Ra (human, UniProt P18510 26-177, limits assumed). Nature of the test: CDI HuProt native protein microarray. The method, then: as §1
Test [6] addresses T6, IL-33 (human, UniProt O95760 1-270, limits assumed).
T6 sequence (looked up): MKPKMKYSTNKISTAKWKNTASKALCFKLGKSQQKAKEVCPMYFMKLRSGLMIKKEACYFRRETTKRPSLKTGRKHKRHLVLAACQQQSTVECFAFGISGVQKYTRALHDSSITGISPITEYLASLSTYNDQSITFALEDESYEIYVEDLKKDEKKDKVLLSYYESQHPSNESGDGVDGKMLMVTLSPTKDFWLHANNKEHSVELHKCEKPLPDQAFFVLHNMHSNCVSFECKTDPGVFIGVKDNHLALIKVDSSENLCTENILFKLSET
Nature of the test: CDI HuProt native protein microarray. As for the experimental part:
as §1

Test [7] concerns the target T7, IL-36g (human, UniProt Q9NZH8 1-169, limits assumed).
T7 sequence (looked up): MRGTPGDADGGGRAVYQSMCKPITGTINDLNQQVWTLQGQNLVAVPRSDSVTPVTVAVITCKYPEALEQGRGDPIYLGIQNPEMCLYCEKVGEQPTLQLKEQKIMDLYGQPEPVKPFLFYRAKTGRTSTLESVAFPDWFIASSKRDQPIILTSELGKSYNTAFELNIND
In words: CDI HuProt native protein microarray. The method, then:
as §1

Test [8] deals with T8, IL-36a (human, UniProt Q9UHA7 1-158, limits assumed).
T8 sequence (looked up): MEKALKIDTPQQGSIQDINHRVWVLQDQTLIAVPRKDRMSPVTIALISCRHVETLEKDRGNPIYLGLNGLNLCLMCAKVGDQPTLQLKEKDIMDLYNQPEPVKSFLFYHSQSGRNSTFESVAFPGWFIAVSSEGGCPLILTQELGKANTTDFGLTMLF
In words: CDI HuProt native protein microarray. The method, then: as §1

Test [9] addresses T9, IL-36b (human, UniProt Q9NZH7 1-164, limits assumed).
T9 sequence (looked up): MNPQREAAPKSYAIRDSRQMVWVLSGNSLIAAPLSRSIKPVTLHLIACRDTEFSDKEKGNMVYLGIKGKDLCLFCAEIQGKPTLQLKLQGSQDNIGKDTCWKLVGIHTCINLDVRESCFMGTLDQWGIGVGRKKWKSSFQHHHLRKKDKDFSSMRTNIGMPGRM
Nature of the test: CDI HuProt native protein microarray. As for the experimental part: as §1

Test [10] concerns the target T10, IL-1β (human, UniProt P01584 1-269, limits assumed). In words: CDI HuProt native protein microarray. As for the experimental part:
as §1

The target in test [11] is T11, IL-1α (human, UniProt P01583 1-271, limits assumed).
T11 sequence (looked up): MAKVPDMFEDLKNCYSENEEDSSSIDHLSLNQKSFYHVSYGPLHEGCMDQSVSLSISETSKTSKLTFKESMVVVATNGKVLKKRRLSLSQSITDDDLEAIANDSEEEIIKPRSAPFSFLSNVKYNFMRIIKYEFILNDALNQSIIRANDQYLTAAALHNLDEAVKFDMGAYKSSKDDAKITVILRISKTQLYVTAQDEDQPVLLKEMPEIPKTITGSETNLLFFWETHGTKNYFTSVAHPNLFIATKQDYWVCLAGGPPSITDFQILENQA
In words: CDI HuProt native protein microarray. The method, then:
as §1

Test [12] has as its target T2, IL-36Ra. Nature of the test: CDI HuProt native protein microarray, IL-1 family members. As for the experimental part:
as §1

Test [13] addresses T3, IL-18. The description is as above. The method, then: as §1
Test [14] has as its target T4, IL-37. Described as above. The method, then: as §1
The target in test [15] is T5, IL-1Ra. Described as above. As for the experimental part: as §1
For test [16], the target named is T6, IL-33. Described as above. As for the experimental part: as §1
For test [17], the target named is T7, IL-36g. The test is described as above. As for the experimental part: as §1
In test [18] the target is T1, human interleukin-38 (IL-38). The test is described as above. As for the experimental part:
as §1

Test [19] deals with T8, IL-36a. The test is described as above. As for the experimental part:
as §1

In test [20] the target is T9, IL-36b. The description is as above. As for the experimental part:
as §1

Test [21] addresses T10, IL-1β. The description is as above. The method, then:
as §1

The target in test [22] is T11, IL-1α. The description is as above. As for the experimental part: as §1

Experimental findings from US20240174741A1 (IMMUNOME, published 2024) are described below.

T5 sequence (P18510 26-177 limits assumed): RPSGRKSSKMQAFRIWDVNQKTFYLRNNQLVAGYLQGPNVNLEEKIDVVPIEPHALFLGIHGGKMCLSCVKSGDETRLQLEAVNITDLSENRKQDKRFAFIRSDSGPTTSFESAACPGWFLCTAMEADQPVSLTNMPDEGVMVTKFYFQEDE

B1: IMM20130 (antibody, human IgG1, kappa, V domains shown)
VH: QVQLVQSGAEVKKPGASVKVSCKASGYSFINYGITWVRQVPGQGLEWMGWISAYNVKTKYAPKFQGRVNMNTDTSTRTAYMELRSLRSDDTAVYYCARDRDYDFWSGSAFDIWGQGTMVTVSS
VL: EIVLTQSPGTLSLSPGERVTLSCRASQSISTNYLAWYQQKPGQAPSLLIYGASSRATGIPDRFSGSGSGTDFTLTISRLEPEDFAVYYCQQYGSSPPRTFGQGTKLEIKR
notes: also called PR087-29B5 (parent hybridoma antibody)
With B1, in test [1], the Kd was 13.6 nM and the association rate constant (kon) was found to be 4980 M⁻¹ s⁻¹.

B2: NZB-M8 (antibody, V domains shown)
VH: EVQLQQSGPELVKPGASVKISCKASGYSFTGYYMHWVKQSPEKSLEWIGVINPNTGGITYNQKFKAKATLNVDKSSSTAYMQLKSLTSEDSAVYYCARSMGVWGQGTLVTVSA
VL: DIVMTQAAPSVSVTPGESVSISCRSSKSLLHSNGNTYLYWFLQRPGQSPQLLIYRMSNLASGVPDRFSGSGSGTAFTLRISRVEAEDVGVYYCMQYLEYPFTFGSGTKLEIK
notes: Mouse monoclonal from an NZB/w mouse hybridoma
For the molecule B2, the binding result with IL-36Ra [2], with IL-18 [3], with IL-37 [4], in the test with IL-1Ra [5], in the test with IL-33 [6] and in the test with IL-36g [7] was “no binding” each time. In addition, the binding result with IL-36a [8], in the test with IL-36b [9], with IL-1β [10] and with IL-1α [11] was “no binding” throughout. The Z-score with IL-36Ra [12] is -0.034; with IL-18 [13], -0.132; in the test with IL-37 [14] it was -0.113; in the test with IL-1Ra [15], -0.166; with IL-33 [16], -0.17; with IL-36g [17], -0.143. Further, the Z-score in test [18] is 34; with IL-36a [19], 0.033; with IL-36b [20] it was -0.087; with IL-1β [21], -0.143; with IL-1α [22], -0.147.

B3: CD1-M8 (antibody, V domains shown)
VH: EVQLQQSGPELVKPGASVKMSCKASGYTFTDYYIHWVKQSHGKGLEWIGYIFPNNGGNGYSQKFKGKATMTVDKSSSTAYMELRSLTSEDSAVYYCARGGYDAGFVYWGQGTLVTVSA
VL: DIVMSQSPSSLAVSAGEKVTMSCKSSQSLFNSGARKNFLAWYQQKPGQSPKLLIYWASTRESGVPDRFTGSGSGTDFTLTISSVQAEDLAVYYCKQSYYLITFGAGTKLELK
notes: Mouse monoclonal from a CD-1 mouse hybridoma
Take B3: the binding result with IL-36Ra [2], with IL-18 [3], with IL-37 [4], in the test with IL-1Ra [5], with IL-33 [6] and in the test with IL-36g [7] was “no binding” each time. Also, the binding result with IL-36a [8], with IL-36b [9], in the test with IL-1β [10] and with IL-1α [11] was “no binding” each time. Also, the Z-score with IL-36Ra [12] is -0.019; in the test with IL-18 [13], -0.016; with IL-37 [14] it was -0.016; in the test with IL-1Ra [15] it was 0.003; with IL-33 [16], -0.014; with IL-36g [17], -0.008. For the same molecule, the Z-score was 142 in test [18]; 0.012 in the test with IL-36a [19]; -0.01 with IL-36b [20]; -0.017 with IL-1β [21]; -0.014 in the test with IL-1α [22].

One may read the Kd as the equilibrium constant for the complex coming apart. A higher Kd goes with lower affinity. Usually kon stands for the rate constant with which the complex forms.
